Data reported in patent publication US20210101970A1 (Pfizer, published 2021).

Legend:
[1] = target: T1, human CXCR5 (human, UniProt P32302 1-372); assay: cell-based or functional assay
T1 sequence: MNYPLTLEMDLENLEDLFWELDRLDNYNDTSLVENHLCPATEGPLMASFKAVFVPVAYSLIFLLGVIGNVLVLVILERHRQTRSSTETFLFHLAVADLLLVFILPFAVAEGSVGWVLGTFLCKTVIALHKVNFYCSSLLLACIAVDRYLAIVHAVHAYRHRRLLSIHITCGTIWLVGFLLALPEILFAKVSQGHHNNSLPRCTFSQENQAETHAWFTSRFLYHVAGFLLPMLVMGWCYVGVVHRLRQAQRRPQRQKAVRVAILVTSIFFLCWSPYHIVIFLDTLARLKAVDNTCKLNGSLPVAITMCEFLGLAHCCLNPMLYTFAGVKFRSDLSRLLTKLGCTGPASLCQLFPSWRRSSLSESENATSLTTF

[2] = target: T2, CXCR3 (human, UniProt P49682 1-368); assay: flow cytometry (GMFI) on fixed CXCR3 cells, chimeric antibody, goat anti-human PE
T2 construct: whole, on cells
T2 sequence (looked up): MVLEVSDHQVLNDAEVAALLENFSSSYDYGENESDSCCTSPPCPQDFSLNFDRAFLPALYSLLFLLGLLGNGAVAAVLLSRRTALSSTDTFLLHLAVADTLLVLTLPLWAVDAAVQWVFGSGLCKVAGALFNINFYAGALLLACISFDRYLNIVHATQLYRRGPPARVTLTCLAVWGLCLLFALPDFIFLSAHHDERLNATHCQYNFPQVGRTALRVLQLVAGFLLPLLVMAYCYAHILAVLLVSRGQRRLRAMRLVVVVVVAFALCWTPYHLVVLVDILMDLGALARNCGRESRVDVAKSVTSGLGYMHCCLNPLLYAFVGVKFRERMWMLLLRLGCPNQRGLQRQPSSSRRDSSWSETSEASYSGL
Description: (§1) To determine the specificity of the antibodies for CXCR5, the binding of the antibodies to cells expressing other […] was assessed. Briefly, FlowCellect chemokine receptor cell lines expressing CXCR1, CXCR2, or CXCR3 (EMD Millipore, Billerica, Mass.), and Jurkats (ATCC, Manassas, Va.), which express CXCR4, were stained with 5 μg/ml or 10 μg/ml of each anti-CXCR5 chimeric antibody. The cells were then incubated with goat anti-human conjugated with PE (Southern Biotech, Birmingham, Ala.) prior to analysis by flow cytometry using a FACSVerse Analyzer (BD Biosciences, Franklin Lakes, N.J.).

[3] = target: T3, CXCR2 (human, UniProt P25025 1-360); assay: flow cytometry (GMFI) on fixed CXCR2 cells, chimeric antibody, goat anti-human PE
T3 construct: whole, on cells
T3 sequence (looked up): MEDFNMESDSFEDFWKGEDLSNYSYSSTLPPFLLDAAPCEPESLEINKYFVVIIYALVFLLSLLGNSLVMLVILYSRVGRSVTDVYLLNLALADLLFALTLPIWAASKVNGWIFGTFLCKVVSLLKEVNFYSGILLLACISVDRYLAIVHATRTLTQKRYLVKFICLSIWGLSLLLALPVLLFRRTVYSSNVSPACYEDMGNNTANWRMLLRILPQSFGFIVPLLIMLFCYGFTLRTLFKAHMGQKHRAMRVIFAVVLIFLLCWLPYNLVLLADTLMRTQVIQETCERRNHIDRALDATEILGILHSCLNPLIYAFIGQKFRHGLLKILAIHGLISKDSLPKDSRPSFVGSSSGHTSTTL
Description: as §1

[4] = target: T4, CXCR1 (human, UniProt P25024 1-350); assay: flow cytometry (GMFI) on fixed CXCR1 cells, chimeric antibody, goat anti-human PE
T4 construct: whole, on cells
T4 sequence (looked up): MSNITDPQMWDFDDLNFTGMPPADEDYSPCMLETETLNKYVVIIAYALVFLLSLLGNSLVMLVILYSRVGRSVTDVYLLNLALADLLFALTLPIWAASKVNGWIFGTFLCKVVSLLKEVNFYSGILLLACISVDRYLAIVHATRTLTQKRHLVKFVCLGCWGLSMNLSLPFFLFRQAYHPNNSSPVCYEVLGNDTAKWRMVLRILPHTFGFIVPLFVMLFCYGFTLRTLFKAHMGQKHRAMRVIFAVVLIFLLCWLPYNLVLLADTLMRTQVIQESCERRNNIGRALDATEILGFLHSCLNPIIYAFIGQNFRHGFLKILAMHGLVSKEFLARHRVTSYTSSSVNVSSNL
Description: as §1

B1: 2C9 (reference antibody) (antibody, human IgG1, kappa, V domains shown)
VH: EVQLVESGGGLVKPGGSLRLSCAASGFTFSTNAMNWVRQAPGKGLERVARIRSKSNNYATYYADSVKDRFTISRDDSKNTLYLQMNSLKTEDTAVYYCVTMIPFAYWGQGTLVTVSS
VL: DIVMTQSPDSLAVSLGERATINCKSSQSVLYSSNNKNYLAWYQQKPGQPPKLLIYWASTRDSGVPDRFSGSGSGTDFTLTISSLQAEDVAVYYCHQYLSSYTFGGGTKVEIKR
notes: fucosylated
% Inhibition CXCL13 [1]: 114% | EC50, stimulation of CXCL13-inhibited cAMP production [1]: 0.793 nM

B2: Chimeric 11G2 (antibody, human IgG1, kappa, V domains shown)
VH: EVKLVESGGGLVQPGGSLRLSCATSGFTFTDFYMSWVRQPPGRALEWLGFIRNKANGYTTEYSASVKGRFTISRDNSQSILYLQMNTLRAGDSATYYCVRVYGSTLHYWGQGTILTVSS
VL: DVVVTQSPDSLAVSLGQRATISCRASESVEYHGTSLMHWYQQKPGQPPKLLIYAASNVESGVPARFSGSGSGTDFSLNIHPVEEGDIAMYFCQQSRKVPWTFGGGTKLEIKR
notes: mouse V regions on human IgG1/kappa; also called 11G2 (chimeric)
binding result [2]: no binding (tested: 5 or 10 µg/ml (not on the sheet)) | binding result [3]: no binding (tested: 5 or 10 µg/ml (not on the sheet)) | binding result [4]: no binding (tested: 5 or 10 µg/ml (not on the sheet))
